This passage reports Kd, dH and stoichiometry N results from PMC8167360.

Broadly, the Kd is the concentration at which binding is half-saturated. By stoichiometry N is commonly meant a count of units in the complex or per binding partner.

The target in this assay is X domain (Mac1) plus Mac2 (Mac1–2) of SARS-CoV Nsp3, purified (SARS-CoV (strain Frankfurt)). Briefly: ITC; […] ([…]) […] ([…]) […]; 25°C; VP-ITC; 20 mM Tris–HCl pH 8.5, 150 mM NaCl. (In ITC the heat of successive injections is recorded.)

B1: middle domain of human Paip1 (Paip1M), purified (domain or fragment)
chain: GSHMASMTGGQQMGRGSTLSEYVQDFLNHLTEQPGSFETEIEQFAETLNGCVTTDDALQELVELIYQQATSIPNFSYMGARLCNYLSHHLTISPQSGNFRQLLLQRCRTEYEVKDQAAKGDEVTRKRFHAFVLFLGELYLNLEIKGTNGQVTRADILQVGLRELLNALFSNPMDDNLICAVKLLKLTGSVLEDAWKEKGKMDMEEIIQRIENVVLDANCSRDVKQMLLKLVELRSS
With B1, the Kd came to 18.6 µM, the dH was -3.73 kcal/mol and the stoichiometry N worked out at 1.14.
